Laboratory results: patent US20120192294

System: Aβ1-42 peptide, untreated (non-nitrated)

Substance: recombinant insulin degrading enzyme (IDE)
- degradation of Aβ (immunoblot with 6E10 after 2 h incubation): Analysis after 2 h of incubation showed decreased degradation of Aβ with increasing concentration of Sin-1
